Measurements reported in patent publication US11066655B2, “RNA polymerase, methods of purification and methods of use” (President and Fellows of Harvard College, priority 2013, dated 2021).

B1: Syn5 RNAP: single subunit DNA-dependent RNA polymerase from marine cyanophage Syn5, amino acid sequence SEQ ID NO:23 (protein)
chain: MSFDLIARQLQRETEAAELARKRLQDARREANERSYASSNIESRKAIATFLDPIAQRIGERLFTLRRGTGAVDAAEVYKHLKNADHHHLALITMKTALDVLGKDPEPQIQQLTTAIGRNIQLELRLTYYAEENPELYKQASRFFHAGTGTRQKATVIKLKFNREGIEWDQWSRVTCHKVGQWLMLAMADVTGWIERATDRTSGGRKTKTRICYSREFLQHRDTILAAAEQLAFCQWPMLCPPIEWSNDHNGGYLSEQIRRVNPLIRKTGPLGTRKQGDIPLAMLNNLQGQAYKVNPEVLDIANHCYESNVTVGKFIRHAPLPVPPSPGEDCTEDQLTAYKRARREAEDFNAQISQKNWRTTEVMYVARKYADEASFWMPASFDYRGRVYFLNTALNPQGTDFDKALLYFAEEGPVNEWWLSFHVATTYGLDKETMVNRVQWARDNHELIDRIASDPVRHTEWHDADEPWCFLAACLEYKACVIDGTKQTSGLPIGIDATCSGLQHLAAMTRCGRTAALVNVTPTDKPADAYKTVAQASLKHLPKEQHEWITRKVTKRPVMCTPYGVTMSSARGYIRDQLVKDGHKEDLRSPGVLNGIVKAIFNEAIPEVIPGPVQVMAWLKRSAGQIIDRGDSTITWTTPSGFEVVQDLKKSKTYEVKTRIMGGARIKLQVGDGFTDEPDRDHHKSALAPNVVHSNDASLLHLTFAFWDKPFTVIHDCVLGRSCDMDQMGSDIRLHFAEMYKADVMQDWADQVGVELPVDLIKNTLDIDSVNQSLYFFS
modifications: Amino acid sequence of a cyanophage Syn5 RNAP

Key:
[1] = Chamberlin et al. (1973); cited from earlier work
[2] = tested on: template for a 37 nt RNA or a 2.7 knt RNA; experiment: 2′-F-dNTP incorporation with mixed cofactor Mg2+/Mn2+; type: biochemical; conditions: mixed cofactors Mg2+/Mn2+
Excerpt: FIG. 25A depicts a gel showing that WT Syn5 polymerase incorporates 2′-F-C/UTP and all four 2′-F′dNTP in the presence of mixed cofactor Mg^2+/Mn^2+.
FIG. 25B depicts a gel comparing 2′-F′dNTP incorporation using Mg^2+ versus the mixed cofactor.
According to certain aspects of the invention, co-factors such as Mg^+2 and Mn^+2 are used to reduce discrimination against 2′-F-dNTP of wild-type Syn5 RNA polymerase. The optimum cofactor concentration of Mg^2+ or Mn^2+ is similar for Syn5 RNA polymerase, and Mg^2+ and Mn^2+ are provided as mixed cofactors for the Syn5 RNA polymerase. Without wishing to be bound by scientific theory, a substantial proportion of Syn5 RNA polymerase in the reaction may utilize one Mg^2+ and one Mn^2+ in their active sites for catalysis (based on the two-metal-ion mechanism for polymerase catalysis) so that both high overall yield and low discrimination against 2′-F-dNTP can be achieved with the methods described herein.
The reaction components were incubated at 37° C. for 4 hrs. 0.4 µl of the reaction mixture were loaded onto 10% TBE gel or 2% agarose gel and stained with ethidium bromide. […] See FIG. 25A lane 5 vs lane 1; FIG. 25B lane 3 vs lane 1). […]

pUC19-S5P or pUC19-T7P = experiment: Processivity gel assay, rolling-circle synthesis on single-promoter plasmids; type: biochemical
Description: FIGS. 9A-9H depict the processivity of Syn5 and T7 RNA polymerases. A) Agarose gel showing RNA synthesis by previously purified Syn5 RNA polymerase, newly purified Syn5 RNA polymerase with the improved procedure, and T7 RNA polymerase on a plasmid template containing a single cognate promoter (as shown in the schematic). B) Product as shown in A) by S5N2 RNA polymerase was incubated with 1 U/[…]1 RNase I or DNase I to confirm its RNA nature. C) Effect of increasing KCl concentration on Syn5 RNA polymerase transcription. D) Products by Syn5 and T7 RNAP in a rolling-circle manner were analyzed at denaturing condition. E) Same assay as D) except that the template plasmids were linearized as shown in the schematic. F) & G) Decreasing the concentration of T7 (F) and Syn5 (G) RNA polymerase reduced the abortive products due to clash of RNA polymerases at promoter region. H) RNA polymerase promoter distribution on coliphage T7 and cyanophage Syn5 genomes.
DNA templates for transcription assays were either plasmids or dsDNA fragments made of synthesized oligonucleotides. To test the processivity of Syn5 and T7 RNAP, a single Syn5 or T7 promoter plus 3 guanosine downstream of the promoter (Syn5 5′-ATTGGGCACCCGTAAGGG-3′ (SEQ ID NO:1) or T7 5′-[…]-3′) (SEQ ID NO:2) was inserted between the BamHI and XbaI sites of plasmid pUC19 to form pUC19-S5P or pUC19-T7P. The templates for run-off tRNA^Arg synthesis were formed by annealing of two complementary synthesized DNA oligos of which sequences are as following:
For the results shown in FIG. 9, reaction mixtures (10 μl) contained 40 mM Tris-HCl pH 8.0, 6 mM MgCl2, 2 mM spermidine, 10 mM DTT, 600 µM[…]P, GTP, CTP, and UTP, 1.5 U/µl RNaseOUT™ recombinant ribonuclease inhibitor, 0.04 U/µl yeast inorganic pyrophosphatase, 10 nM pUC19-Syn5P3G or pUC19-T7P3G, 10 nM Syn5 or T7 RNAP and various amount of KCl as noted in the figure or described in the figure legend. After 1 hr incubations at RT, one unit of DNase I was added to each reaction mixture and incubated for an additional 15 min at 37° C. to remove the DNA templates. For FIGS. 8A-8C, 2 µl reaction mixture was directly mixed with native loading dye and loaded onto 1.6% TAE agarose gel. For FIGS. 8D-8F, RNA products were purified with RNA Clean & Concentrator™-5 kit into a final solution of 10 µl and 5 µl each was mixed with 5 µl denaturing RNA loading dye (New England Biolabs). Samples were then heated at 65° C. for 5 min and loaded onto 1.6% TAE agarose gel. RNA products were visualized by ethidium bromide staining.

plasmid pET24-S5 RNAP = experiment: Incorporation of AMP by RNA polymerases from the improved purification; type: biochemical
Description: FIGS. 8A-8B depict RNA polymerases described further herein. A) SDS-PAGE gel of Syn5 RNA polymerase purified as previously reported (S50, 18), newly purified Syn5 RNA polymerase using Ni-NTA chromatography in the presence of 2 M NaCl (S5N1), newly purified Syn5 RNA polymerase purified using Ni-NTA and gel filtration chromatography in the presence of 2 M NaCl (S5N2), and T7 RNA polymerase. B) Incorporation of AMP at RT by 50 nM RNA polymerases shown in A). A plasmid with both a Syn5 and T7 promoter was used as template for transcription.
Reactions for FIG. 8B contained 40 mM Tris-HCl pH 8.0, 2 mM spermidine, 10 mM DTT, 200 µM[…] GTP, C[…]P, UTP and ^3H-ATP (20 cpm/pmole), 1.5 U/µl RNaseOUT™, 50 nM Syn5 or T7 RNAP and 4 nM plasmid pET24-S5 RNAP. Reaction mixtures were incubated at room temperature (RT, ˜24° C.). After various times the reactions were stopped by the addition of 20 mM EDTA. 4 µl of the mixtures were then loaded onto Whatman DE81 filter paper disks and the disks were washed to remove the unincorporated ^3H-ATP. The amount of insoluble ^3H-AMP, corresponding to nucleotides incorporated into newly synthesized RNA, was measured using a scintillation counter. The data were analyzed using Prism software.

Molecule | temperature of maximum activity [1] [°C] | RNA with all four 2′-F-dNMPs [2] | yield of 2′-F-dCMP/2′-F-dUMP incorporated RNA [2] | apparent processivity (pUC19-S5P or pUC19-T7P) | processivity (pUC19-S5P or pUC19-T7P) | length approached by some products (pUC19-S5P or pUC19-T7P; low enzyme concentration) [kilo nt] | length of most products (pUC19-S5P or pUC19-T7P; low enzyme concentration) | activity of enzyme purified by Ni-NTA and gel filtration (plasmid pET24-S5 RNAP; 50 nM RNAP, RT) | increase of specific activity by improved purification (2 M NaCl) (plasmid pET24-S5 RNAP; versus previous three-step purification) [fold]
T7 RNAP: RNA polymerase encoded by bacteriophage T7, from New England Biolabs [reference compound] | 37 | – | – | – | – | – | – | – | –
B1 | – | substantial yield | better yield | over 30 kilo nucleotides | greater than 30,000 nt | ~30 | over 9 kilo nt | close to that of T7 RNAP | 2
